Test results as given in patent US5804412.

Assays:
[1] = molecular target: EGFR core tyrosine kinase domain (residues 663-958) fused to LexA (human) (UniProt P00533); assay: yeast two hybrid, LexA-EGFR bait and SNX1-B42 prey, galactose against dextrose control
[2] = molecular target: endogenous EGFR of CV-1 cells (monkey (endogenous EGFR of CV-1 monkey kidney cells))
[3] = molecular target: endogenous EGFR of CV-1 cells (monkey (endogenous EGFR of CV-1 monkey kidney cells)); assay: Scatchard analysis of 125I-EGF binding to SNX1 transfected CV-1 cells
[4] = molecular target: endogenous EGFR of CV-1 cells (monkey (endogenous EGFR of CV-1 monkey kidney cells)); assay: Scatchard analysis of 125I-EGF binding to vector transfected control CV-1 cells

“carboxy terminal 58 amino acids of SNX1 fused to the B42 acid patch transcriptional activation domain” was tested, and the induction of β-gal activity in response to galactose induction [1] was 400 x.
For “human SNX1 (sorting nexin 1), full length”, the EGFR half life (35S-methionine pulse chase, immunoprecipitation) [2] was 2 h.
In the case of 125I-EGF (ligand), the Kd [3] is reported as 1.34 nM and the Kd [4] is reported as 0.73 nM.
